Test system: OmpR-VP64
Experiment: Screen of EnvZ variants for kinase and phosphatase activity on OmpR-VP64-driven output
Type: cell-based
Details: FIG. 3B
Text: The well-studied EnvZ-OmpR system was used to develop feedback controllers of the present disclosure, using separate kinase and phosphatase variants of EnvZ, and an OmpR-VP64 fusion protein as an activator for promoting transcription of a reporter protein. Kinase and phosphatase variants of the HK EnvZ through mutation and/or truncation (FIG. 3A). […] However, the phosphatase EnvZ activity was weak compared to the EnvZm2 kinase. To create a stronger phosphatase, a DHp domain of EnvZ was fused to a leucine zipper GCN4 domain, with GCN4 at the N-terminus and EnvZm2 at the C-terminus, to lock the DHp domain of an HK into fixed conformations (FIG. 3C). […]
The phosphatase regulator was further modified to allow tunability by use of a small molecule. […] Expression of both proteins from the same nucleic acid and translation from the same mRNA, such as by separating coding sequences by a 2A motif or open reading frames IRES cassette, ensures maximal coupling of transcription and translation of the two proteins. […]
For quantifying the effects of EnvZ variants and perturbations, fold-changes were calculated by dividing the median output level of each sample by that of the equivalent sample in the absence of the EnvZ variant or perturbation. […]

B1: EnvZm2: kinase+/phosphatase− mutant of EnvZ containing a T247A mutation (SEQ ID NO: 3) (protein)
chain: MRRLRFSPRSSFARTLLLIVTLLFASLVTTYLVVLNFAILPSLQQFNKVLAYEVRMLMTDKLQLEDGTQLVVPPAFRREIYRELGISLYSNEAAEEAGLRWAQHYEFLSHQMAQQLGGPTEVRVEVNKSSPVVWLKTWLSPNIWVRVPLTEIHQGDFSPLFRYTLAIMLLAIGGAWLFIRIQNRPLVDLEHAALQVGKGIIPPPLREYGASEVRSVTRAFNHMAAGVKQLADDRTLLMAGVSHDLRAPLTRIRLATEMMSEQDGYLAESINKDIEECNAIIEQFIDYLRTGQEMPMEMADLNAVLGEVIAAESGYEREIETALYPGSIEVKMHPLSIKRAVANMVVNAARYGNGWIKVSSGTEPNRAWFQVEDDGPGIAPEQRKHLFQPFVRGDSARTISGTGLGLAIVQRIVDNHNGMLELGTSERGGLSIRAWLPVPVTRAQGTTKEG
kinase activity (phosphorylation of OmpR): particularly effective in phosphorylating OmpR

— US20240018528A1, “A TUNABLE PHOSPHORYLATION-BASED FEEDBACK CONTROLLER OF MAMMALIAN GENE EXPRESSION” (Massachusetts Institute of Technology, priority 2020, published 2024)
